From the supplement of paper PMC10567573

B1: TRIM43 (parent)
chain: FCDMDKSLLCLLCSNSQEHGAHKH
B2: C10orf62 (parent)
chain: TSECPSDKDKSPESHKAKNESWIK

Variants of: B1
Experiment: protein stability index of a GFP-peptide fusion (GPS, HEK-293T) (PSI 1-6); higher = more stable
Settings: c terminus: a fixed tail appended
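Further: lentivirally expressed fusions sorted by FACS into six bins by GFP to DsRed ratio, PSI derived from sequencing read proportions per bin multiplied by bin number.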

Variant | protein stability index
F1T | 3.21
F1N | 3.57
F1Q | 3.72
F1Y | 1.88
F1M | 3.41
F1A | 3.33
F1I | 2.81
F1D | 3.56
F1G | 3.49
F1R | 3.57
F1H | 3.64
F1S | 3.72
F1L | 3.21
F1K | 3.56
F1C | 3.54
F1P | 3.6
F1W | 2.45
F1E | 4.17
F1V | 3.25
C2E | 3.4

Variant | protein stability index
C2H | 2.22
C2P | 2.76
C2K | 3.4
C2Q | 2.43
C2T | 1.84
C2D | 3.65
C2N | 2.58
C2G | 1.77
C2R | 2.84
C2A | 1.54
C2F | 2.23
C2M | 2.31
C2S | 2.51
C2Y | 2.9
C2I | 1.8
C2V | 1.86
C2L | 2.21
C2W | 2.38
D3C | 2.26
D3A | 2.15

Variants of: B2
Experiment: as above
Settings: c terminus: a fixed tail appended

Variant | protein stability index
E13A | 2.77
E13H | 3.02
E13P | 2.63
E13Y | 2.98
E13W | 2.17
E13V | 2.77
E13N | 3.43
E13R | 2.82
E13M | 2.65
E13L | 2.21
E13Q | 3.34
E13K | 3.08
E13C | 3.35
E13T | 2.65
E13S | 3.2
E13I | 2.44
E13D | 2.98
E13F | 2.94
E13G | 2.89
D9S | 3.11
D9Y | 2.64
D9V | 2.9
D9P | 3.39
D9T | 3.34
D9R | 2.62

Variant | protein stability index
D9Q | 3.27
D9N | 2.94
D9W | 2.98
D9M | 3.28
P12I | 3.21
P12E | 3.15
P12T | 3.54
P12A | 2.87
P12W | 2.37
P12G | 3.48
P12H | 3.44
P12V | 2.4
P12K | 2.86
P12L | 2.77
P12F | 2.44
P12S | 2.54
P12D | 3.83
P12M | 3.19
P12R | 1.66
P12Y | 2.74
P12N | 3.3
P12C | 3.62
P12Q | 3.79
K18T | 4.02
K18G | 3.9

Variant | protein stability index
K18F | 4.09
K18Q | 3.9
K18C | 4.37
K18S | 4.15
K18L | 4.18
K18V | 3.56
K18P | 3.74
K18W | 3.26
K18E | 3.83
K18R | 3.51
K18H | 4.03
K18Y | 4.32
K18N | 3.6
K18A | 3.67
K18I | 3.01
K18D | 3.84
K18M | 3.77
W22R | 5.84
W22N | 5.73
W22M | 5.6
W22V | 5.79
W22G | 5.58
W22A | 5.34
W22T | 5.54
W22L | 4.7

Variant | protein stability index
W22H | 5.83
W22I | 5.72
W22E | 5.67
W22P | 5.54
W22S | 5.82
W22C | 5.18
W22Y | 5.23
W22K | 5.46
W22Q | 5.8
W22D | 5.78
W22F | 5.62
I23G | 5.32
I23C | 2.89
I23Y | 5.21
I23D | 5.72
I23E | 3.96
I23K | 4.59
I23N | 5.17
I23S | 3.79
I23A | 3.68
I23L | 4.46
I23W | 5.11
I23F | 5.32
I23T | 3.33
I23H | 5.18

Variant | protein stability index
I23Q | 2.89
I23P | 5.81
I23R | 5.25
I23V | 1.74
I23M | 4.7
E20F | 4.74
E20G | 4.3
E20L | 4.56
E20H | 4.51
E20P | 4.83
E20V | 3.77
E20A | 5.18
E20Q | 4.13
E20R | 4.09
E20W | 4.72
E20T | 4.39
E20C | 4.47
E20S | 4.29
E20I | 4.38
E20Y | 4.2
E20N | 4.69
E20M | 3.05
E20K | 4.37
E20D | 4.02
K24T | 3.18

Variant | protein stability index
K24S | 3.48
K24P | 4.73
K24G | 3.77
K24N | 3.17
K24A | 2.9
K24V | 2.96
K24R | 3.92
K24E | 2.15
K24F | 3.37
K24C | 3.2
K24D | 2.99
K24I | 2.69
K24W | 3.43
K24Y | 3.16
K24L | 2.66
K24Q | 2.27
K24H | 3.56
K24M | 2.76
A17K | 2.93
A17Y | 3.5
A17Q | 3.64
A17N | 3.56
A17S | 3.48
A17R | 2.6
A17F | 3.42

Variant | protein stability index
A17G | 3.27
A17V | 3.37
A17W | 3.5
A17I | 4.17
A17T | 3.14
A17M | 2.93
A17H | 3.29
A17P | 3.07
A17C | 3.6
A17E | 3.88
A17L | 3.64
A17D | 3.88
S14I | 3.66
S14Q | 4.13
S14K | 2.82
S14W | 4
S14Y | 3
S14R | 3.82
S14C | 3.52
S14V | 3.98
S14G | 3.5
S14E | 4.58
S14F | 3.89
S14D | 4.49
S14N | 3.95

Variant | protein stability index
S14P | 3.2
S14H | 3.71
S14A | 3.7
S14M | 3.34
S14L | 3.48
S14T | 3.41
K16H | 3.8
K16G | 3.58
K16C | 3.75
K16T | 4.35
K16M | 3.85
K16I | 3.92
K16N | 3.67
K16L | 3.37
K16E | 4.94
K16A | 4.49
K16W | 3.33
K16D | 4.2
K16V | 3.95
K16Y | 3.6
K16R | 3.02
K16P | 4.62
K16Q | 3.29
K16F | 3.85
K16S | 3.79

Variant | protein stability index
K10S | 3.41
K10G | 2.63
K10Q | 3.46
K10N | 3.73
K10W | 2.28
K10C | 3.95
K10E | 4
K10R | 2.81
K10D | 4.02
K10L | 4.2
K10T | 3.04
K10M | 3.63
K10F | 3.72
K10P | 3.3
K10Y | 2.94
K10H | 3.53
K10V | 2.75
K10I | 3.25
K10A | 3.64
H15S | 3.61
H15P | 3.92
H15A | 4.12
H15W | 3.33
H15Q | 3.37
H15T | 2.99

Variant | protein stability index
H15V | 3.88
H15I | 4.07
H15M | 2.83
H15F | 3
H15C | 3.2
H15R | 3.31
H15Y | 3.35
H15G | 3.69
H15K | 4.06
H15D | 3.92
H15N | 2.69
H15L | 3.48
H15E | 3.84
S21M | 4.36
S21W | 4.49
S21V | 4.47
S21E | 5.3
S21R | 4.9
S21P | 3.56
S21K | 4.84
S21N | 5.12
S21C | 4.11
S21Q | 4.62
S21D | 5.57
S21L | 3.65

Variant | protein stability index
S21H | 4.95
S21T | 3.97
S21Y | 4.3
S21F | 5.12
S21G | 4.34
S21A | 4.61
S21I | 4.77
S11A | 3.41
S11P | 3.52
S11C | 3.31
S11F | 2.98
S11G | 3
S11T | 3.85
S11E | 3.67
S11V | 2.96
S11Y | 2.5
S11D | 2.29
S11N | 3.7
S11R | 2.92
S11W | 3.26
S11Q | 1.92
S11I | 3.2
S11L | 3.04
S11H | 3.01
S11M | 3.26

Variant | protein stability index
S11K | 3.81
N19P | 3.19
N19Q | 3.13
N19L | 3.3
N19A | 2.83
N19C | 3.63
N19W | 3.46
N19Y | 3.11
N19H | 2.42
N19D | 3.99
N19M | 3.64
N19G | 3.92
N19I | 4.02
N19E | 4.23
N19R | 2.84
N19S | 3.97
N19T | 2.94
N19F | 2.87
N19V | 3.41
